Laboratory results from patent publication US20200181277A1.

Key:
[1] = target: purified human C1q (human) (UniProt P02745); assay: cell-based or functional assay
human CD40 (human) = human CD40 (human) (UniProt P25942); assay: cell-based or functional assay
Chain of human CD40 (human) (P25942 21-277): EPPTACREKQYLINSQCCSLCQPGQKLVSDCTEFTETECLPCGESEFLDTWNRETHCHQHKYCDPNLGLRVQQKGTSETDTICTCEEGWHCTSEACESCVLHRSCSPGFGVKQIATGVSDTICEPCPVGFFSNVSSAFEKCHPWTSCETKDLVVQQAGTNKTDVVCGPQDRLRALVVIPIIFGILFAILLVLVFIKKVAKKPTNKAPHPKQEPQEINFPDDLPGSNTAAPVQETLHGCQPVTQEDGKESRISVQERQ

| Substance | C1q EC90 (µg/mL), viability assay on WIL2-S SF cells [1] | CD40 response, luciferase reporter cells, EC50 (human CD40 (human)) |
| --- | --- | --- |
| IgG1-b12 (antibody) | > 2.5 µg/mL |  |
| purified, recombinant CD40 ligand (R&D systems, Cat No. 6420-CL-025/CF) (from UniProt P29965 108-261) |  | 0.113 µg/mL |
